Consider one substance from patent publication US20250304655A1.

The test deals with human hemoglobin (HbA) (human) (UniProt P69905). As to the kind of experiment: cell-based or functional assay.
Chain of human hemoglobin (HbA) (human) (P69905 2-142 limits assumed, chain 1 of 2): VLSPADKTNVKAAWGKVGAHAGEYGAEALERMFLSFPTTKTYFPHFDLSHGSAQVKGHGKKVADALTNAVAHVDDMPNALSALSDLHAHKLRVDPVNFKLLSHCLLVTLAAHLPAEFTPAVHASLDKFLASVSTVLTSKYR
Chain of human hemoglobin (HbA) (human) (P68871 2-147 limits assumed, chain 2 of 2, further chain): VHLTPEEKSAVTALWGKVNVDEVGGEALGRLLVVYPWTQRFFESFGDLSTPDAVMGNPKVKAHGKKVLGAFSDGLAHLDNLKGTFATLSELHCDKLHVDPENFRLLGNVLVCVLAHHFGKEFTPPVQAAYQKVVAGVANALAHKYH

With recHp1-1, the median relative relaxation was 83%.
